According to paper PMC5566378, “The human IL-17A/F heterodimer: a two-faced cytokine with unique receptor recognition properties” (Scientific Reports, 2017):

What was measured:
Settings in all cases: both partners purified
[1] = target: T1, human IL-17RC extracellular domain (human, UniProt Q8NAC3-2 21-467); test: SPR; Biacore 8K; IL-17RC ECD immobilised (about 500 RU) by amine coupling on a CM4 chip; cytokines as analytes in PBS pH 7.4, 3 mM EDTA, 0.05% Tween20; 20 °C, 30 µl/min; 1:1 Langmuir model, steady-state analysis for variants of weaker affinity; mean of at least five independent experiments
T1 construct: human IL-17RC full-length extracellular domain, residues 21-467 of UniProt entry Q8NAC3-2, secreted with the CD33 signal peptide; numbers count on: isoform Q8NAC3-2; also called IL-17RC ECD; source: GnTI-deficient HEK293S, transient expression, purified (anti-APP antibody column, Resource-Q, Superdex-200 SEC)
T1 sequence (looked up): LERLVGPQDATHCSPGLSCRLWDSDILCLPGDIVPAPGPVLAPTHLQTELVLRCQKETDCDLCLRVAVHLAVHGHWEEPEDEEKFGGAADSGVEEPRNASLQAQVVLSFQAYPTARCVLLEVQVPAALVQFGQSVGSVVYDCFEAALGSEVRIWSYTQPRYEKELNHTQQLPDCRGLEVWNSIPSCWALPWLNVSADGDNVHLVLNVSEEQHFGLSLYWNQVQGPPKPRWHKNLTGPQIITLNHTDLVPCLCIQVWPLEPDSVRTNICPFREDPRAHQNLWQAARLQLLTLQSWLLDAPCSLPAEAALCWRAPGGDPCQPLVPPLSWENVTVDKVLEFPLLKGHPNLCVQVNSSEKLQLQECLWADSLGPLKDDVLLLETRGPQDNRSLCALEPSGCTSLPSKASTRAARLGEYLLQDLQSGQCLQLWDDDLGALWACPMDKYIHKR

[2] = target: T2, human IL-17RA extracellular domain (human, UniProt Q96F46 33-320, biotin on the Avi-tag (BirA) for SPR measurements); test: SPR; Biacore 8K; biotinylated IL-17RA ECD immobilised (about 500 RU) on a streptavidin SA chip; cytokines as analytes in PBS pH 7.4, 3 mM EDTA, 0.05% Tween20; 20 °C, 30 µl/min; 1:1 Langmuir model, steady-state analysis for variants of weaker affinity; mean of at least five independent experiments
T2 construct: human IL-17RA full-length extracellular domain, residues 33-320 of UniProt Q96F46, secreted with the CD33 signal peptide; The construct is described 'for crystallization'; the SPR sample is the same ECD biotinylated on its Avi-tag; In the crystal the complex was treated with PNGaseF and Endoglycosidase H and biotinylation is not mentioned; also called IL-17RA ECD; source: GnTI-deficient HEK293S, …

[3] = target: T3, human IL-17RC extracellular domain (human, UniProt Q8NAC3-2 21-467); test: SPR; Biacore 8K; IL-17RC ECD amine-coupled on a CM4 chip (about 500 RU); cytokines as analytes in PBS pH 7.4, 3 mM EDTA, 0.05% Tween20; 20 °C, 30 µl/min; 1:1 Langmuir model or steady-state analysis
T3 construct: human IL-17RC, full-length extracellular domain, residues 21-467 of UniProt Q8NAC3-2, cloned behind the CD33 signal peptide; numbers count on: isoform Q8NAC3-2; also called IL-17RC ECD; IL-17RC receptor
T3 sequence (looked up): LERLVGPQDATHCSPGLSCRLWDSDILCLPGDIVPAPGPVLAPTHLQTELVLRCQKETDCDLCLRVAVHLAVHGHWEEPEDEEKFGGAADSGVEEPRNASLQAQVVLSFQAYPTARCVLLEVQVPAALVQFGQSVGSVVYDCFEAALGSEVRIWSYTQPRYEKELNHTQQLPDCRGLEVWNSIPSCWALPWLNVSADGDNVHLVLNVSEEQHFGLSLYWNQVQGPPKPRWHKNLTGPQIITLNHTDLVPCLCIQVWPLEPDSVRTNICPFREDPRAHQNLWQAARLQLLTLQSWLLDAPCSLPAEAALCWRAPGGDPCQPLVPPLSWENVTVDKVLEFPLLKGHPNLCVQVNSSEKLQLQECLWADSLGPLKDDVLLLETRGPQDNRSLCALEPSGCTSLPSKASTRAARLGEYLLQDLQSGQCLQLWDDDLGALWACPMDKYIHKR

[4] = target: T4, human IL-17RA extracellular domain (human, UniProt Q96F46 33-320, biotin on the Avi-tag (E. coli BirA), for the SPR measurements only); test: SPR; Biacore 8K; biotinylated IL-17RA ECD immobilised on a streptavidin chip (about 500 RU); cytokines as analytes in PBS pH 7.4, 3 mM EDTA, 0.05% Tween20; 20 °C, 30 µl/min; 1:1 Langmuir model or steady-state analysis
T4 construct: human IL-17RA, full-length extracellular domain, residues 33-320 of UniProt Q96F46, cloned behind the CD33 signal peptide; The same construct was used unbiotinylated for the complex and its crystals (treated with PNGaseF and Endoglycosidase H) and biotinylated for SPR; also called IL-17RA ECD; IL-17RA receptor; source: GnTI-deficient HEK293S, transient expression, secreted, purified (anti-APP …)

Kd [1] [nM]	Kd [2] [nM]	fold reduction in binding affinity against wild-type IL-17F [3] [fold]	fold reduction in affinity against wild-type IL-17F [4] [fold]	Binder
4				human IL-17F homodimer, wild type (ligand, UniProt Q96PD4 31-163, looked up, human IL-17F, residues 31-163 of UniProt Q96PD4, secreted with the CD33 signal peptide (P20138-1); also called IL-17F wt) RKIPKVGHTFFQKPESCPPVPGGSMKLDIGIINENQRVSMSRNIESRSTSPWNYTVTWDPNRYPSEVVQAQCRNLGCINAQGKEDISMNSVPIQQETLVVRRKHQGCSVSFQLEKVLVTVGCTCVTPVIHHVQ
905	726			human IL-17F homodimer, R77A (ligand, UniProt Q96PD4 31-163, looked up, human IL-17F, residues 31-163 of UniProt Q96PD4, secreted with the CD33 signal peptide, Arg77 to alanine; also called IL-17F R77A; source: HEK293S, transient expression, purified (as the wild type)) RKIPKVGHTFFQKPESCPPVPGGSMKLDIGIINENQRVSMSRNIESASTSPWNYTVTWDPNRYPSEVVQAQCRNLGCINAQGKEDISMNSVPIQQETLVVRRKHQGCSVSFQLEKVLVTVGCTCVTPVIHHVQ
		≥ 200	> 5	human IL-17F homodimer, Arg77 to alanine mutant (ligand, UniProt Q96PD4 31-163, looked up, human IL-17F, residues 31-163 of UniProt Q96PD4, cloned behind the CD33 signal peptide and the APP6-tag, R77A; also called IL-17F R77A; point mutant of the IL-17F homodimer; source: HEK293S, transient expression, secreted, purified) RKIPKVGHTFFQKPESCPPVPGGSMKLDIGIINENQRVSMSRNIESASTSPWNYTVTWDPNRYPSEVVQAQCRNLGCINAQGKEDISMNSVPIQQETLVVRRKHQGCSVSFQLEKVLVTVGCTCVTPVIHHVQ
